Values quoted from earlier work, collected in paper PMC9849996.

Biological target: ROS-GC1 (Bos taurus) (UniProt P55203)
Test: SPR; given as Ka

UniProt P55203, sequence (P55203 57-1110): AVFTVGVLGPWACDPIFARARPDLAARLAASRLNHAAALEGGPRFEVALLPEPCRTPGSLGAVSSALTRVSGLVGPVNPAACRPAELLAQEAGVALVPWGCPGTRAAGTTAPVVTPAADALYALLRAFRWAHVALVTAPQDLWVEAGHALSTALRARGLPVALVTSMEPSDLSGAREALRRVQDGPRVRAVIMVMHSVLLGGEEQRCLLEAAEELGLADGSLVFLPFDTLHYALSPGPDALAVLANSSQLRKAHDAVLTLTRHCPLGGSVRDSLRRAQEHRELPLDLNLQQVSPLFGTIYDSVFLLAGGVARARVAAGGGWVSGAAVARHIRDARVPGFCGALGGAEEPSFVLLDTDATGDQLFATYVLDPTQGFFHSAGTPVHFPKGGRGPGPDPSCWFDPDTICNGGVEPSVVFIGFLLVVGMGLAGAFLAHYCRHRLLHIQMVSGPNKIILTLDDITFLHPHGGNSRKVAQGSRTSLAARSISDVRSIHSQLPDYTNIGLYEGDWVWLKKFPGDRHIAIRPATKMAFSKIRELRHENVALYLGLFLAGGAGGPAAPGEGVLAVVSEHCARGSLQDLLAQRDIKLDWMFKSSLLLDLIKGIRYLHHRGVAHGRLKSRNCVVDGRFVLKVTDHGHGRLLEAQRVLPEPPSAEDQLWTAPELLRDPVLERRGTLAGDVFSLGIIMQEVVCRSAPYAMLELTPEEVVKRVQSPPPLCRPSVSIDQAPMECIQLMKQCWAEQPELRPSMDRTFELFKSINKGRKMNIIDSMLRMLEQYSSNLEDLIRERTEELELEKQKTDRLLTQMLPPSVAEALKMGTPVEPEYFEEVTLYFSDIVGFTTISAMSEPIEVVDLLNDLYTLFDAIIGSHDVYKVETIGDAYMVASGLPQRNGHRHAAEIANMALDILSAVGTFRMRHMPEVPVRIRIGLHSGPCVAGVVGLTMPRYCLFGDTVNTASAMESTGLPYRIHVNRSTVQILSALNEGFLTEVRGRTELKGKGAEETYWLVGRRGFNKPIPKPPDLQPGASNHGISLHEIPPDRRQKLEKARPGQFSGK

- Kd: 426 nM
Substance: frequenin (from UniProt Q2V8Y7)
